The series “crystal structure” deals with the molecule itself. The series is described as follows: crystal structure.
The series “cryo-EM structure” deals with the molecule itself. The series is described as follows: cryo-EM structure.

B1: mGlu5 ECD (residues 21-569 of wild-type human metabotropic glutamate receptor subtype 5) (domain or fragment)
chain: QSSERRVVAHMPGDIIIGALFSVHHQPTVDKVHERKCGAVREQYGIQRVEAMLHTLERINSDPTLLPNITLGCEIRDSCWHSAVALEQSIEFIRDSLISSEEEEGLVRCVDGSSSSFRSKKPIVGVIGPGSSSVAIQVQNLLQLFNIPQIAYSATSMDLSDKTLFKYFMRVVPSDAQQARAMVDIVKRYNWTYVSAVHTEGNYGESGMEAFKDMSAKEGICIAHSYKIYSNAGEQSFDKLLKKLTSHLPKARVVACFCEGMTVRGLLMAMRRLGLAGEFLLLGSDGWADRYDVTDGYQREAVGGITIKLQSPDVKWFDDYYLKLRPETNHRNPWFQEFWQHRFQCRLEGFPQENSKYNKTCNSSLTLKTHHVQDSKMGFVINAIYSMAYGLHNMQMSLCPGYAGLCDAMKPIDGRKLLESLMKTNFTGVSGDTILFDENGDSPGRYEIMNFKEMGKDYFDYINVGSWDNGELKMDDDEVWSKKSNIIRSVCSEPCEKGQIKVIRKGEVSCCWTCTPCKENEYVFDEYTCKACQLGSWPTDDLTGCDLIP
B1: in “crystal structure”, the binding result is reported as “binds”.

B2: full-length mGlu5, HA-FLAG-human mGlu5 (21-865) with a C-terminal hexahistidine tag (receptor)
chain: QSSERRVVAHMPGDIIIGALFSVHHQPTVDKVHERKCGAVREQYGIQRVEAMLHTLERINSDPTLLPNITLGCEIRDSCWHSAVALEQSIEFIRDSLISSEEEEGLVRCVDGSSSSFRSKKPIVGVIGPGSSSVAIQVQNLLQLFNIPQIAYSATSMDLSDKTLFKYFMRVVPSDAQQARAMVDIVKRYNWTYVSAVHTEGNYGESGMEAFKDMSAKEGICIAHSYKIYSNAGEQSFDKLLKKLTSHLPKARVVACFCEGMTVRGLLMAMRRLGLAGEFLLLGSDGWADRYDVTDGYQREAVGGITIKLQSPDVKWFDDYYLKLRPETNHRNPWFQEFWQHRFQCRLEGFPQENSKYNKTCNSSLTLKTHHVQDSKMGFVINAIYSMAYGLHNMQMSLCPGYAGLCDAMKPIDGRKLLESLMKTNFTGVSGDTILFDENGDSPGRYEIMNFKEMGKDYFDYINVGSWDNGELKMDDDEVWSKKSNIIRSVCSEPCEKGQIKVIRKGEVSCCWTCTPCKENEYVFDEYTCKACQLGSWPTDDLTGCDLIPVQYLRWGDPEPIAAVVFACLGLLATLFVTVVFIIYRDTPVVKSSSRELCYIILAGICLGYLCTFCLIAKPKQIYCYLQRIGIGLSPAMSYSALVTKTNRIARILAGSKKKICTKKPRFMSACAQLVIAFILICIQLGIIVALFIMEPPDIMHDYPSIREVYLICNTTNLGVVTPLGYNGLLILSCTFYAFKTRNVPANFNEAKYIAFTMYTTCIIWLAFVPIYFGSNYKIITMCFSVSLSATVALGCMFVPKVYIILAKPERNVRSAFTTSTVVRMHVGDGKSSSAASRSSSLVNL
On to B2, for which the binding result in the series “cryo-EM structure” was “binds”.
